Laboratory results from patent US20170183639.

Test system: YFP-CD2 (CD2 expressed in LLC-PK1 cells as a yellow fluorescent protein fused protein)

Src kinase of LLC-PK1 cells
basal Src activity measured as Y418 phosphorylation: CD2 expression does increase basal Src activity in this manner as compared with a control cell line
